From patent US20260151519A1 (AKTIS ONCOLOGY, published 2026)
Primed or numbered codes have the meaning given here. Where no end group is shown, it is not given here. [ ]: non-standard residue; d: D form. The star is where a group is joined. Biotin = O=C1N[C@H]2[C@H](CS[C@H]2CCCCC(=O)*)N1; Lys(Me3) = C[N+](C)(C)CCCC[C@H](N)C(=O)O; PEG4′ = not defined here

What was measured:
Assay in all cases: cell microarray on HEK293 cells
EGF = target: T1, EGF (human, UniProt P01133 23-1207)
T1 construct: whole, on cells
Method: (§1) Initially, two pools of compounds were tested. […] To perform this assay, HEK293 cells were plated on a dish and localized spots of cells were transiently over-expressed with a single cDNA encoding for GFP and one of the 6,416 targets. Included in this library were multiple clones for the Nectin family members, including plasma membrane, non-tethered secreted, and tethered secreted forms of Nectin-1, 2, 3, and 4. Secreted protein targets were tethered to the plasma membrane to aid in detection. The molecule pools were incubated on the fixed, over-expressing cell microarrays (n=2 per protein), and binding was visualized using Alexa Fluor 647 streptavidin fluorescence.

GLP2R = target: T2, GLP2R (human, UniProt O95838 1-553)
T2 construct: whole, on cells
T2 sequence (looked up): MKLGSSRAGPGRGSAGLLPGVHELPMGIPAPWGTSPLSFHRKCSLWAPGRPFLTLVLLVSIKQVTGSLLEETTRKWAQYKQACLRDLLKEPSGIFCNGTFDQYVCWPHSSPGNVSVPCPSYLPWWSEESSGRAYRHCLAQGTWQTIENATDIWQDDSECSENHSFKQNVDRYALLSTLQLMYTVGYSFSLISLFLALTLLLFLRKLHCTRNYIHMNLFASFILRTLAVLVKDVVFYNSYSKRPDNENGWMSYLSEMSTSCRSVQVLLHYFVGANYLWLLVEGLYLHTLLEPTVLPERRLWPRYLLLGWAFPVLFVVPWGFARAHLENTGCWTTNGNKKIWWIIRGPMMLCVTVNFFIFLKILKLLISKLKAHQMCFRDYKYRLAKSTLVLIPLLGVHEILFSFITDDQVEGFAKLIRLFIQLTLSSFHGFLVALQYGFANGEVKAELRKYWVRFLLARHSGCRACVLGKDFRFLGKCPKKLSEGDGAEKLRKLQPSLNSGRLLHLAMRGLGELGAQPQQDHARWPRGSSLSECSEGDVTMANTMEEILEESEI
Method: as §1

SLC22A23 = target: T3, SLC22A23 (human, UniProt A1A5C7 1-686)
T3 construct: whole, on cells
T3 sequence (looked up): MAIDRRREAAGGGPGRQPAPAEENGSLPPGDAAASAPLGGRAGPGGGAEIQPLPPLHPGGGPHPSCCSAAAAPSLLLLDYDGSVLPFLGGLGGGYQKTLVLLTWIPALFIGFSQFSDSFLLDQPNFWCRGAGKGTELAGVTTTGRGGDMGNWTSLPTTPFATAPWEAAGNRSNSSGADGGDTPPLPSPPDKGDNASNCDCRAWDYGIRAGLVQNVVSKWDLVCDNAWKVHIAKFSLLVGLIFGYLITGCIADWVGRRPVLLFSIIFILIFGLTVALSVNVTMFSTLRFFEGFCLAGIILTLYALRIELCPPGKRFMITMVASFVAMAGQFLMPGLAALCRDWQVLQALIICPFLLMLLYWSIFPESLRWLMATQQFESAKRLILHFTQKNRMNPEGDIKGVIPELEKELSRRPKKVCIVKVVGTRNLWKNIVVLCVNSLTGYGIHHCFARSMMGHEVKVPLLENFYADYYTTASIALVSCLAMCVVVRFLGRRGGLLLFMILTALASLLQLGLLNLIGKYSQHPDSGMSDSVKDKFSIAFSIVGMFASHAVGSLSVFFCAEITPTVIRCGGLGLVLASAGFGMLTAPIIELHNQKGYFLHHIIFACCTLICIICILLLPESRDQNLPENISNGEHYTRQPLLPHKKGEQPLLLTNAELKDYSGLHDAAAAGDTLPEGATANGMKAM
Method: as §1

IGFBP4 = target: T4, IGFBP4 (human, UniProt P22692 22-258)
T4 construct: whole, on cells; Secreted targets were tethered to the plasma membrane
T4 sequence (looked up): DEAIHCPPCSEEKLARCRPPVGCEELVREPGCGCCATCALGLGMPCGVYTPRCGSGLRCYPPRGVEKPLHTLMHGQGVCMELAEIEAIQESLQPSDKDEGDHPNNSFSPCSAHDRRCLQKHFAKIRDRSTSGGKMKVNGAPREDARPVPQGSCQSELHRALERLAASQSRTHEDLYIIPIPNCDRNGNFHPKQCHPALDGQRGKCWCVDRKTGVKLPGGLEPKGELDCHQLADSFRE
Method: as §1

EDN2 = target: T5, EDN2 (human, UniProt P20800 49-69)
T5 construct: whole, on cells; Secreted targets were tethered to the plasma membrane
T5 chain (looked up): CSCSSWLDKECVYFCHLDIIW
Method: as §1

TRPV4 = target: T6, TRPV4 (human, UniProt Q9HBA0 1-871)
T6 construct: whole, on cells
Method: as §1

PAPPA = target: T7, PAPPA (human, UniProt Q13219 82-1627)
T7 construct: whole, on cells; Secreted targets were tethered to the plasma membrane
Method: as §1

IGFBP3 = target: T8, IGFBP3 (human, UniProt P17936 28-291)
T8 construct: whole, on cells; Secreted targets were tethered to the plasma membrane
Method: as §1

SPNS2 = target: T9, SPNS2 (human, UniProt Q8IVW8 1-549)
T9 construct: whole, on cells
T9 sequence (looked up): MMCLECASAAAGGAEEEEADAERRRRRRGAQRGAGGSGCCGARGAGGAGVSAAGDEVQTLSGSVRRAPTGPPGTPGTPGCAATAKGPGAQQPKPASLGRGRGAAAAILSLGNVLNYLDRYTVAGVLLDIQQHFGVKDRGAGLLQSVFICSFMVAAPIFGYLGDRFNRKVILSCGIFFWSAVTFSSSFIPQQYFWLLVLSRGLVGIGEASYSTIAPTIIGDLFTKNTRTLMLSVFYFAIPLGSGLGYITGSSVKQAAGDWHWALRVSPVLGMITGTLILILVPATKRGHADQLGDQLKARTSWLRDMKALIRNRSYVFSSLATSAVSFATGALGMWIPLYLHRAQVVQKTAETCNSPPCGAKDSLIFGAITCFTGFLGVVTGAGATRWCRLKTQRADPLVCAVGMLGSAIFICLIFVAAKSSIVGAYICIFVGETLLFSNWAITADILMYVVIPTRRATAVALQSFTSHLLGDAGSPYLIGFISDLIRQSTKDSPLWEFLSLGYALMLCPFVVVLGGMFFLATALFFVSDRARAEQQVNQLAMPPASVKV
Method: as §1

Measured: binding result

T8 sequence (P17936 28-291): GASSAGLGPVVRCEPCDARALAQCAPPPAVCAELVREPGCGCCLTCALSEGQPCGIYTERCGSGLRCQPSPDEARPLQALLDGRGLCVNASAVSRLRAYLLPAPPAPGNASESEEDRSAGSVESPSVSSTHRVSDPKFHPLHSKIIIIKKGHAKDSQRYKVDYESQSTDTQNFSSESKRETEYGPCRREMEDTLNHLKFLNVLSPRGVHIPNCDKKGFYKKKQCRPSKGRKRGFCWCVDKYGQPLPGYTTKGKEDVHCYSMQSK
T7 sequence (Q13219 82-1627): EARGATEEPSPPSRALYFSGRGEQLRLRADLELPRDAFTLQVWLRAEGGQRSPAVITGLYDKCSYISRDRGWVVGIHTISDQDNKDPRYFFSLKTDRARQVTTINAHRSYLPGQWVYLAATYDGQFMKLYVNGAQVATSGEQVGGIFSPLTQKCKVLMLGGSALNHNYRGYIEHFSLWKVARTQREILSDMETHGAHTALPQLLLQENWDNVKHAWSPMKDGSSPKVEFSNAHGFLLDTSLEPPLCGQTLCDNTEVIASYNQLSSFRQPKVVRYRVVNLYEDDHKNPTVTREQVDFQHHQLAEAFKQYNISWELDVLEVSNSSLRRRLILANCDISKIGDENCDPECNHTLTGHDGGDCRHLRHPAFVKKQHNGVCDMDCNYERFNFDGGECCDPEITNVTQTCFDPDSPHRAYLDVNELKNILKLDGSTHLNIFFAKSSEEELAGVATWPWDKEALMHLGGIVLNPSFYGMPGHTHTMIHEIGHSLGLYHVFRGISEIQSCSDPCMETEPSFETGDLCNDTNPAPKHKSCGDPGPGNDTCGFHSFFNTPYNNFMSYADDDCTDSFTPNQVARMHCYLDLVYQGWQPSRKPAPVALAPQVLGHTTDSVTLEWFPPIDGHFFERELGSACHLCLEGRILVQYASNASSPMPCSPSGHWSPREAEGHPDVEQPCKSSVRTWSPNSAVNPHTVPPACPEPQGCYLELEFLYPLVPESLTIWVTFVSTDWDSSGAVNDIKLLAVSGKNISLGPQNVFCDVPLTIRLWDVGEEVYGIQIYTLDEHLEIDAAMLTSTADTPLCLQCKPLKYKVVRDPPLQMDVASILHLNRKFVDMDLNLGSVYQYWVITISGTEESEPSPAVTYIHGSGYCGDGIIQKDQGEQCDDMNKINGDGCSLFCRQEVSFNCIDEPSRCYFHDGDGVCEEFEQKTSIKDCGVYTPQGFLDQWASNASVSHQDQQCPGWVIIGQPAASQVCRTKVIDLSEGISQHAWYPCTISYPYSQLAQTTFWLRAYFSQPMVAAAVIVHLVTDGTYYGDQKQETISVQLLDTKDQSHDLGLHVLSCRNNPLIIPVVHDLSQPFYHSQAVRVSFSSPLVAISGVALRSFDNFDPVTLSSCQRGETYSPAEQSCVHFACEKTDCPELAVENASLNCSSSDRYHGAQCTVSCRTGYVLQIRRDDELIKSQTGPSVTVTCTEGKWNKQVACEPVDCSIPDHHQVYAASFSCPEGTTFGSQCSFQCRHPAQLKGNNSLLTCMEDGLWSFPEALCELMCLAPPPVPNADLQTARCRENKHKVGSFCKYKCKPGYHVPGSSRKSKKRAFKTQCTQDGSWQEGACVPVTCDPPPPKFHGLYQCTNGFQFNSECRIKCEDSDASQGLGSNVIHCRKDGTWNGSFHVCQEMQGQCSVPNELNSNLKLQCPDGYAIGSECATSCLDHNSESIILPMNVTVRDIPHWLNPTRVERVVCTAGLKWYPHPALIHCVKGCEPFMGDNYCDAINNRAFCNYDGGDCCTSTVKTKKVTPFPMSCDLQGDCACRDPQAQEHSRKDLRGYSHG
T1 sequence (P01133 23-1207): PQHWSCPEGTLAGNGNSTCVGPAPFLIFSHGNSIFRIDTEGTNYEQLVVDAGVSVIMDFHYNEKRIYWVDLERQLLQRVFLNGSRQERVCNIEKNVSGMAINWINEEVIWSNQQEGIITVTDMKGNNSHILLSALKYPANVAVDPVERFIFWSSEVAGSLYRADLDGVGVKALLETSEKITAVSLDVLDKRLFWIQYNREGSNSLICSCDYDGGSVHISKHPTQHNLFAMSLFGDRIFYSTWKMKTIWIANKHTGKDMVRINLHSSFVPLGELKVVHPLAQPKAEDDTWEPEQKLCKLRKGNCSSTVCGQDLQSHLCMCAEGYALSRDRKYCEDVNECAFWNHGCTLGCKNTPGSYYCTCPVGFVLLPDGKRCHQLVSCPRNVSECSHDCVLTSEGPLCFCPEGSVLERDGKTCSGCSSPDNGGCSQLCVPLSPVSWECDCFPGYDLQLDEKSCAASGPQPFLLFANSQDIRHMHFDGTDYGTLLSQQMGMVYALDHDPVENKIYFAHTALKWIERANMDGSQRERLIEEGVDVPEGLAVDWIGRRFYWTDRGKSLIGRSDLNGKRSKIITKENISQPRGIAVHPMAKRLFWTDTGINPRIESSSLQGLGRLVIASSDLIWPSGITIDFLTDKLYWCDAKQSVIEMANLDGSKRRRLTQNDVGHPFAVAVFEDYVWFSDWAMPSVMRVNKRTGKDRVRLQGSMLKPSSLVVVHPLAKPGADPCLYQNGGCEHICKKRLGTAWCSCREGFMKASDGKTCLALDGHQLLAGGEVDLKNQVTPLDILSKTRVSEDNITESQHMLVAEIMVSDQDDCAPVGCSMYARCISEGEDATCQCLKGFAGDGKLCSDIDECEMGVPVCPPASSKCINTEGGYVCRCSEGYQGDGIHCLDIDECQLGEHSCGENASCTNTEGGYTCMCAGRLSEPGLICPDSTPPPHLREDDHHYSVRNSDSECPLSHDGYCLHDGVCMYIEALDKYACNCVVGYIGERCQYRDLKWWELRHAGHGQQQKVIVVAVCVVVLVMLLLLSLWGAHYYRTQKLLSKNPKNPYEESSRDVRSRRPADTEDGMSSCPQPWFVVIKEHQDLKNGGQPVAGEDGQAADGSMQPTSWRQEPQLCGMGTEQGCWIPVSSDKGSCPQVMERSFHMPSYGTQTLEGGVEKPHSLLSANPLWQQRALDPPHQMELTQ
T6 sequence (Q9HBA0 whole entry): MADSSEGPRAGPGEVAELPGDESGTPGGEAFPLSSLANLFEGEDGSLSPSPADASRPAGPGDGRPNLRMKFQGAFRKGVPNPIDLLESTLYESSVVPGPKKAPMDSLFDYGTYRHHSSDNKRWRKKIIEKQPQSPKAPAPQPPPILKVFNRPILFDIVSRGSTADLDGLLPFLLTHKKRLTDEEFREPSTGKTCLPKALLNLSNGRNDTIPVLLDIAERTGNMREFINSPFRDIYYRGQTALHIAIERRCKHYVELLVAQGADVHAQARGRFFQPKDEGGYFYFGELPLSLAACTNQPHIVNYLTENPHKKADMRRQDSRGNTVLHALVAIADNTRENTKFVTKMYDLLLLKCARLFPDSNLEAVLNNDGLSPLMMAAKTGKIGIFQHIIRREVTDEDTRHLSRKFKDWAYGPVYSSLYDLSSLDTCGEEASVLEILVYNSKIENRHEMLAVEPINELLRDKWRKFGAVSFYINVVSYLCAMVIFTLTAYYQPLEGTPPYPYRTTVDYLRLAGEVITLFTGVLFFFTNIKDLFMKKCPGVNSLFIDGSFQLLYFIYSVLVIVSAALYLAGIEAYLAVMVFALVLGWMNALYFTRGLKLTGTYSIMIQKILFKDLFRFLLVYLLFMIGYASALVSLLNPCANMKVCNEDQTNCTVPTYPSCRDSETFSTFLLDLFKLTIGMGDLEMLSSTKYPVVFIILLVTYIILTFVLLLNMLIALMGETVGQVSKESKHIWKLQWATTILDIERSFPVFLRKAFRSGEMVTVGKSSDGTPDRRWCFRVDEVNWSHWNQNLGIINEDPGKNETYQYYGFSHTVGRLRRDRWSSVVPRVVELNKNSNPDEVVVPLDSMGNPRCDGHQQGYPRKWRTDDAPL

{Biotin-PEG4′}-CEYDEEFFTALARLRGGDICQYIQA[Lys(Me3)]FQYLPALCIEEILDNLGCS (designed binder, cysteine pairing not given here) [C253]
no binding (tested: 2 µg/mL): all assays above

{Biotin-PEG4′}-CDYDEQFFTALKRLRGADICEYIQASFQYLPGECIEEILDNLGCS (designed binder, cysteine pairing not given here) [C208]
no binding (tested: 2 µg/mL): all assays above

{Biotin-PEG4′}-CDYDEQFFTALKRLRGGDICEYIQASFQYLPGLCIEEILDNLGCS (designed binder, cysteine pairing not given here) [C190]
no binding (tested: 2 µg/mL): all assays above

{Biotin-PEG4′}-CEYDEQFFTALKRLRGDDICDYIQASFQYLPGLCIEEILDNLGCS (designed binder, cysteine pairing not given here) [C197]
no binding (tested: 2 µg/mL): all assays above

{Biotin-PEG4′}-CDYDEQFFTALARLRGADICEYIQASFQYLPGECIEEILDNLGCS (designed binder, cysteine pairing not given here) [C247]
no binding (tested: 2 µg/mL): all assays above
